In general, Kd refers to the equilibrium constant for the complex coming apart.

In patent US20220339289A1 (Bicycle, published 2022) one finds Kd data, which are given here for one molecule.

This experiment concerns the target T1, Recombinant biotinylated human P-Selectin protein (human, UniProt P16109 42-771, limits assumed, biotinylated (site not stated)).
T1 sequence (looked up): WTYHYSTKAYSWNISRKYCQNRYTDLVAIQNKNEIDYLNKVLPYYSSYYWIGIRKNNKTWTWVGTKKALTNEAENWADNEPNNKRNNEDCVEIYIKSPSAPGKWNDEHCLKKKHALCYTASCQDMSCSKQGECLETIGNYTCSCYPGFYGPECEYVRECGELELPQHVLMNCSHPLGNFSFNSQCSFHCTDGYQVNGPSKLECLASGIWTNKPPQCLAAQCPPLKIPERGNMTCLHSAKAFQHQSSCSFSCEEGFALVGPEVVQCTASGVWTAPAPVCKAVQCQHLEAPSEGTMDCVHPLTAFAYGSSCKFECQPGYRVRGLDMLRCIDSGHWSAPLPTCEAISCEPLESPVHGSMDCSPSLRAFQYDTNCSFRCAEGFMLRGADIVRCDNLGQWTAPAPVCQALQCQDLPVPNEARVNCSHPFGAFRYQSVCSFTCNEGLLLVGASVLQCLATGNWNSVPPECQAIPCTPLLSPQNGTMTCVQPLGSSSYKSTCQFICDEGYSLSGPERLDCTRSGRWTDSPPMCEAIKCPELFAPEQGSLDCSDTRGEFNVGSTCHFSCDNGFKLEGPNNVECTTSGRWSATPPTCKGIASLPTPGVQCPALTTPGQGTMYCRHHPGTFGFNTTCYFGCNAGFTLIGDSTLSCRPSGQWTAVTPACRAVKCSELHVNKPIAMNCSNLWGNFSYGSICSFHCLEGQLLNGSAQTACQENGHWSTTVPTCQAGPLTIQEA
The experiment can be described thus: SPR (Biacore), biotinylated human P-selectin captured on streptavidin chip, peptide as analyte; peptide BCY5455, a separate peptide number. As to the method: Biacore experiments were performed to determine ka (M−1s−1), kd (s−1), KD (nM) values of monomeric peptides binding to human Selectin proteins. Recombinant biotinylated human P-Selectin protein was used. For analysis of binding, either a Biacore 3000 or 5200 instrument was used with a CMS sensor chip (GE Healthcare). For sensor chip surface preparation, streptavidin was immobilized on the chip using standard amine-coupling chemistry at 25° C. with HBS-N (10 mM HEPES, 0.15 M NaCl, pH 7.4) as the running buffer. The carboxymethyl dextran surface was activated with a 12 min injection of a 1:1 ratio of 0.4 M 1-ethyl-3-(3-dim ethyl aminopropyl) carbodiimide hydrochloride (EDC)/0.1 M N-hydroxy succinimide (NHS) at a flow rate of 10 μl/min. For capture of streptavidin, protein was diluted to 0.2 mg/ml in 10 mM sodium acetate (pH 4.5) and captured by injecting 70 μl onto the activated chip surface. Residual activated groups were blocked with a 7 min injection of 1 M ethanolamine (pH 8.5). Biotinylated protein stock was diluted 1:100 in HBS-N and captured on one flow cell at 5 μl/min to a level of 1000-1500 RU. Buffer was changed to PBS/0.05% Tween 20 and a dilution series of the peptides was prepared in this buffer with a final DMSO concentration of 0.5%. […] In all cases a titration was performed with either seven 2-fold dilutions or five 3-fold dilutions. […]
On the technique in general: Surface plasmon resonance follows binding to a sensor surface in real time, without labels.

Starred links: 1 amine or outer side, 2 acyl side, 3 side chain; linkers in the order of their positions; H or OH if unused. Positions of bridges follow the written chain, without caps; N, C: chain ends. *: point of attachment. TATA = O=C(CC[*:1])N1CN(C(=O)CC[*:2])CN(C(=O)CC[*:3])C1; Pent4ynoyl = C#CCCC(=O)*

B1: BCY5455 (peptide)
peptide: Pent4ynoyl-ACYMEWCDVTDYGCA-NH2
modifications: linker 2-7-14 via TATA; also: tandem dimer of 2 copies via central hinge C (GTA) and spacer S1A n=23 joined to N-terminal Pya
In the case of B1, the dissociation constant Kd was found to be 1250 nM.
